Data on six molecules can be found in patent US20250257336A1, “ISOLATED OR ENGINEERED POLYPEPTIDES, MICROORGANISMS AS WELL AS METHOD FOR SYNTHESIZING POLYPHENOLIC PHYTOCHEMICALS PHOSPHATE DERIVATIVE USING THE POLYPEPTIDES OR MICROORGANISMS” (National Taiwan University, priority 2021, published 2025).

To fix the notation:
B1: K27A: site-directed mutant of the PPS of interest (SEQ ID NO: 13), Lys27 substituted with Ala (protein, listed as Bacillus subtilis)
chain: MKKRGVSNMYSVLFRQAEESSQLAGAAGMNLIKLTKHGLPVPDGFIIQTNALARFMEDNQLQETSENVESGIISGTFSDELKDELTSSFYKLRESYRSVAVRSSSASEDLEGASFAGQYETYLNIKTEEEFLAKVKECWASFFSGRVSSYKKKMNNQIAEPLMGIVVQGLIDSEMSGVIFSRNPVTHDDRELLISASYGLGEAVVSGSVTPDTFIVNKSSFEIQKEIGAKEIYMESAAEGIAEKETSEDMRSRFCLTDEQVIELAEITKKTEDLYGYPVDIEFGIADHQIYLLQARPITTIDQDKKAAEEKRSFMITDTDMNDFWLNMESNIEGPVSPLFSSFIVPALEYGLKKSMQKFPIGVVVDEVKLYRGHIYSKNQGGQQPPSEDCGKELFPILSEHMYDIINHTYLPFYRTLDQLAQTEHTAESALDAFQKLKAFYLTAYEEHFNIVFPQILLTNKLQAMYQDIQGESENAHFYEMLTGKMNKSLETDRCLWLFSMEVQENPNLLTIFENNKPEQLQEKLEQTDEGRHFLKNVHEFLQEYGWRSVKSHDLIEQIWVENPYFALANIQNYVRNGYHFDNEFQKTKEKREKLYNEFLENIEDPGLRTEFDRYYQWTLNSANIKDDHHFYIDAMLDAKARIFLLKIGELLAENGVIQDREDLWFLYDDEVEQALLHPVSLQEKAEKRRQIFHEYELAQAPAYLGTPTKEQLKAAEEIVGAVIEDEKNTENHIFGIAASSGIATGPVKIIRDANEFSQFAPGDVLVCKMTTPLWTSLFQDAKAIITDTGGILSHAAIIAREYGIPAVLGTRTATERLRDGDIITVDGSSGKITVVSRS
B2: H795A: site-directed mutant of the PPS of interest, His795 substituted with Ala (protein)
chain: MKKRGVSNMYSVLFRQAEESSQLAGAKGMNLIKLTKHGLPVPDGFIIQTNALARFMEDNQLQETSENVESGIISGTFSDELKDELTSSFYKLRESYRSVAVRSSSASEDLEGASFAGQYETYLNIKTEEEFLAKVKECWASFFSGRVSSYKKKMNNQIAEPLMGIVVQGLIDSEMSGVIFSRNPVTHDDRELLISASYGLGEAVVSGSVTPDTFIVNKSSFEIQKEIGAKEIYMESAAEGIAEKETSEDMRSRFCLTDEQVIELAEITKKTEDLYGYPVDIEFGIADHQIYLLQARPITTIDQDKKAAEEKRSFMITDTDMNDFWLNMESNIEGPVSPLFSSFIVPALEYGLKKSMQKFPIGVVVDEVKLYRGHIYSKNQGGQQPPSEDCGKELFPILSEHMYDIINHTYLPFYRTLDQLAQTEHTAESALDAFQKLKAFYLTAYEEHFNIVFPQILLTNKLQAMYQDIQGESENAHFYEMLTGKMNKSLETDRCLWLFSMEVQENPNLLTIFENNKPEQLQEKLEQTDEGRHFLKNVHEFLQEYGWRSVKSHDLIEQIWVENPYFALANIQNYVRNGYHFDNEFQKTKEKREKLYNEFLENIEDPGLRTEFDRYYQWTLNSANIKDDHHFYIDAMLDAKARIFLLKIGELLAENGVIQDREDLWFLYDDEVEQALLHPVSLQEKAEKRRQIFHEYELAQAPAYLGTPTKEQLKAAEEIVGAVIEDEKNTENHIFGIAASSGIATGPVKIIRDANEFSQFAPGDVLVCKMTTPLWTSLFQDAKAIITDTGGILSAAAIIAREYGIPAVLGTRTATERLRDGDIITVDGSSGKITVVSRS
B3: H629A: site-directed mutant of the PPS of interest, His629 substituted with Ala (protein)
chain: MKKRGVSNMYSVLFRQAEESSQLAGAKGMNLIKLTKHGLPVPDGFIIQTNALARFMEDNQLQETSENVESGIISGTFSDELKDELTSSFYKLRESYRSVAVRSSSASEDLEGASFAGQYETYLNIKTEEEFLAKVKECWASFFSGRVSSYKKKMNNQIAEPLMGIVVQGLIDSEMSGVIFSRNPVTHDDRELLISASYGLGEAVVSGSVTPDTFIVNKSSFEIQKEIGAKEIYMESAAEGIAEKETSEDMRSRFCLTDEQVIELAEITKKTEDLYGYPVDIEFGIADHQIYLLQARPITTIDQDKKAAEEKRSFMITDTDMNDFWLNMESNIEGPVSPLFSSFIVPALEYGLKKSMQKFPIGVVVDEVKLYRGHIYSKNQGGQQPPSEDCGKELFPILSEHMYDIINHTYLPFYRTLDQLAQTEHTAESALDAFQKLKAFYLTAYEEHFNIVFPQILLTNKLQAMYQDIQGESENAHFYEMLTGKMNKSLETDRCLWLFSMEVQENPNLLTIFENNKPEQLQEKLEQTDEGRHFLKNVHEFLQEYGWRSVKSHDLIEQIWVENPYFALANIQNYVRNGYHFDNEFQKTKEKREKLYNEFLENIEDPGLRTEFDRYYQWTLNSANIKDDAHFYIDAMLDAKARIFLLKIGELLAENGVIQDREDLWFLYDDEVEQALLHPVSLQEKAEKRRQIFHEYELAQAPAYLGTPTKEQLKAAEEIVGAVIEDEKNTENHIFGIAASSGIATGPVKIIRDANEFSQFAPGDVLVCKMTTPLWTSLFQDAKAIITDTGGILSHAAIIAREYGIPAVLGTRTATERLRDGDIITVDGSSGKITVVSRS
B4: D627A: site-directed mutant of the PPS of interest, Asp627 substituted with Ala (protein)
chain: MKKRGVSNMYSVLFRQAEESSQLAGAKGMNLIKLTKHGLPVPDGFIIQTNALARFMEDNQLQETSENVESGIISGTFSDELKDELTSSFYKLRESYRSVAVRSSSASEDLEGASFAGQYETYLNIKTEEEFLAKVKECWASFFSGRVSSYKKKMNNQIAEPLMGIVVQGLIDSEMSGVIFSRNPVTHDDRELLISASYGLGEAVVSGSVTPDTFIVNKSSFEIQKEIGAKEIYMESAAEGIAEKETSEDMRSRFCLTDEQVIELAEITKKTEDLYGYPVDIEFGIADHQIYLLQARPITTIDQDKKAAEEKRSFMITDTDMNDFWLNMESNIEGPVSPLFSSFIVPALEYGLKKSMQKFPIGVVVDEVKLYRGHIYSKNQGGQQPPSEDCGKELFPILSEHMYDIINHTYLPFYRTLDQLAQTEHTAESALDAFQKLKAFYLTAYEEHFNIVFPQILLTNKLQAMYQDIQGESENAHFYEMLTGKMNKSLETDRCLWLFSMEVQENPNLLTIFENNKPEQLQEKLEQTDEGRHFLKNVHEFLQEYGWRSVKSHDLIEQIWVENPYFALANIQNYVRNGYHFDNEFQKTKEKREKLYNEFLENIEDPGLRTEFDRYYQWTLNSANIKADHHFYIDAMLDAKARIFLLKIGELLAENGVIQDREDLWFLYDDEVEQALLHPVSLQEKAEKRRQIFHEYELAQAPAYLGTPTKEQLKAAEEIVGAVIEDEKNTENHIFGIAASSGIATGPVKIIRDANEFSQFAPGDVLVCKMTTPLWTSLFQDAKAIITDTGGILSHAAIIAREYGIPAVLGTRTATERLRDGDIITVDGSSGKITVVSRS
B5: E329A: site-directed mutant of the PPS of interest, Glu329 substituted with Ala (protein)
chain: MKKRGVSNMYSVLFRQAEESSQLAGAKGMNLIKLTKHGLPVPDGFIIQTNALARFMEDNQLQETSENVESGIISGTFSDELKDELTSSFYKLRESYRSVAVRSSSASEDLEGASFAGQYETYLNIKTEEEFLAKVKECWASFFSGRVSSYKKKMNNQIAEPLMGIVVQGLIDSEMSGVIFSRNPVTHDDRELLISASYGLGEAVVSGSVTPDTFIVNKSSFEIQKEIGAKEIYMESAAEGIAEKETSEDMRSRFCLTDEQVIELAEITKKTEDLYGYPVDIEFGIADHQIYLLQARPITTIDQDKKAAEEKRSFMITDTDMNDFWLNMASNIEGPVSPLFSSFIVPALEYGLKKSMQKFPIGVVVDEVKLYRGHIYSKNQGGQQPPSEDCGKELFPILSEHMYDIINHTYLPFYRTLDQLAQTEHTAESALDAFQKLKAFYLTAYEEHFNIVFPQILLTNKLQAMYQDIQGESENAHFYEMLTGKMNKSLETDRCLWLFSMEVQENPNLLTIFENNKPEQLQEKLEQTDEGRHFLKNVHEFLQEYGWRSVKSHDLIEQIWVENPYFALANIQNYVRNGYHFDNEFQKTKEKREKLYNEFLENIEDPGLRTEFDRYYQWTLNSANIKDDHHFYIDAMLDAKARIFLLKIGELLAENGVIQDREDLWFLYDDEVEQALLHPVSLQEKAEKRRQIFHEYELAQAPAYLGTPTKEQLKAAEEIVGAVIEDEKNTENHIFGIAASSGIATGPVKIIRDANEFSQFAPGDVLVCKMTTPLWTSLFQDAKAIITDTGGILSHAAIIAREYGIPAVLGTRTATERLRDGDIITVDGSSGKITVVSRS
B6: H630A: site-directed mutant of the PPS of interest, His630 substituted with Ala (protein)
chain: MKKRGVSNMYSVLFRQAEESSQLAGAKGMNLIKLTKHGLPVPDGFIIQTNALARFMEDNQLQETSENVESGIISGTFSDELKDELTSSFYKLRESYRSVAVRSSSASEDLEGASFAGQYETYLNIKTEEEFLAKVKECWASFFSGRVSSYKKKMNNQIAEPLMGIVVQGLIDSEMSGVIFSRNPVTHDDRELLISASYGLGEAVVSGSVTPDTFIVNKSSFEIQKEIGAKEIYMESAAEGIAEKETSEDMRSRFCLTDEQVIELAEITKKTEDLYGYPVDIEFGIADHQIYLLQARPITTIDQDKKAAEEKRSFMITDTDMNDFWLNMESNIEGPVSPLFSSFIVPALEYGLKKSMQKFPIGVVVDEVKLYRGHIYSKNQGGQQPPSEDCGKELFPILSEHMYDIINHTYLPFYRTLDQLAQTEHTAESALDAFQKLKAFYLTAYEEHFNIVFPQILLTNKLQAMYQDIQGESENAHFYEMLTGKMNKSLETDRCLWLFSMEVQENPNLLTIFENNKPEQLQEKLEQTDEGRHFLKNVHEFLQEYGWRSVKSHDLIEQIWVENPYFALANIQNYVRNGYHFDNEFQKTKEKREKLYNEFLENIEDPGLRTEFDRYYQWTLNSANIKDDHAFYIDAMLDAKARIFLLKIGELLAENGVIQDREDLWFLYDDEVEQALLHPVSLQEKAEKRRQIFHEYELAQAPAYLGTPTKEQLKAAEEIVGAVIEDEKNTENHIFGIAASSGIATGPVKIIRDANEFSQFAPGDVLVCKMTTPLWTSLFQDAKAIITDTGGILSHAAIIAREYGIPAVLGTRTATERLRDGDIITVDGSSGKITVVSRS

A short description of this data set: enzymatic activity of the PPS of interest and its protein mutant strains, genistein as substrate (G7P formation, HPLC). Particulars: Mg2+/ATP, 40° C., 10 minutes, pH 7.8, FIG. 30. It counts as biochemical. Here is the method: After vibration-based mixing and centrifugation (13,000 rpm, 4° C., 5 minutes), the resulting supernatant was collected, diluted, and then analyzed by HPLC. The activity unit was defined as the amount of enzyme required to yield 1 nmol of product per unit time.
Once an enzyme was prepared, its protein concentration was diluted to 0.1 mg/mL. The enzyme and the enzyme reaction liquid were mixed at a ratio of 1:1 (v/v) and were allowed to react at 40° C. for 10 minutes, at the end of which methanol was added to dilute the protein tenfold and thereby terminate the reaction. The changes in concentration of genistein (GEN) and G7P (a product of GEN phosphorylation) were analyzed. The catalytic activity of the PPS of interest in the present invention and its mutant strains were subsequently calculated and compared, as shown in FIG. 30. […] The activity test results of other protein mutant strains show no total loss of activity but a trend of decrease in activity. […] However, while the aforesaid important catalytic sites in the active domain for stabilizing the phosphate group were inferred with relatively great certainty, the amino acids in Arm1 either had relatively poor prediction results or had important catalytic sites composed of non-polar amino acids (which when substituted with Ala produce little change in property) such that the combined use of site-directed mutagenesis and enzymatic activity determination lacked accuracy.
For B1, the “catalytic activity (relative specific activity) compared with the PPS of interest” value is reported as “lost its activity”. To B2 belongs “total loss of PPS activity”; to B3, “significant decrease in protein activity”. Take B4: the “catalytic activity (relative specific activity) compared with the PPS of interest” value is “significant decrease in protein activity”. To B5 belongs “relatively significant decrease in activity”; to B6, “significant decrease in protein activity”.
